Data: US20220378833A1 (Novartis, published 2022)

How the values were obtained:
[1] = target: T1, His-Avidin-FKBP (wild-type FKBP) (biotinylated (residue not stated; construct carries an avi-tag)); experiment: AlphaLISA direct assay: 30 nM Flag-FRB and 30 nM biotinylated FKBP; the titrated species is everolimus (EC50 is an everolimus concentration)
T1 construct: also called biotinylated wild-type FKBP; biotinylated FKBP
Experimental: (§1) FRB mutations were also ranked in an alternative assay format. […] All dilutions were made in 1 × AlphaLISA Immunoassay buffer (PerkinElmer). Anti-Flag acceptor beads (PerkinElmer) were added at 10 ug/ml final concentration and incubated for one hour at room temperature. Streptavidin donor beads (PerkinElmer), were then added at a final concentration of 40 ug/ml and the plate was protected from light and incubated for 30 minutes at room temperature. The plate was then read on the PerkinElmer EnVision Multiplate reader equipped with the Alpha Module using excitation of 680 nm and a 570 nm Emission filter.

[2] = target: T1, His-Avidin-FKBP (wild-type FKBP); experiment: AlphaLISA direct assay, Flag-FRB and biotinylated FKBP, everolimus titrated
Experimental: as §1

T1 sequence (chain, as listed by the source limits assumed): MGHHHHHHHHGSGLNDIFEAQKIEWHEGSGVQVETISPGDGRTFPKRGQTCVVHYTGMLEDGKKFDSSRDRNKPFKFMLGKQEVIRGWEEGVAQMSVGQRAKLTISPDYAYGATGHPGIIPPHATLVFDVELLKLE

EC50 [1]	fold improvement over wild type FRB [2]	Binder
3.9 nM	–	His-FLAG-FRB (wild-type FRB) (other, also called wild type Flag-FRB) MGHHHHHHHHGSDYKDDDDKGSASRILWHEMWHEGLEEASRLYFGERNVKGMFEVLEPLHAMMERGPQTLKETSFNQAYGRDLMEAQEWCRKYMKSGNVKDLTQAWDLYYHVFRRISKTS
1.44 nM	3 fold	His-FLAG-FRB T2098L (other) MGHHHHHHHHGSDYKDDDDKGSASRILWHEMWHEGLEEASRLYFGERNVKGMFEVLEPLHAMMERGPQTLKETSFNQAYGRDLMEAQEWCRKYMKSGNVKDLLQAWDLYYHVFRRISKTS
2.46 nM	–	His-FLAG-FRB E2032I (other, also called E20321 (OCR form)) MGHHHHHHHHGSDYKDDDDKGSASRILWHEMWHEGLIEASRLYFGERNVKGMFEVLEPLHAMMERGPQTLKETSFNQAYGRDLMEAQEWCRKYMKSGNVKDLTQAWDLYYHVFRRISKTS
2.15 nM	–	His-FLAG-FRB E2032L (other) MGHHHHHHHHGSDYKDDDDKGSASRILWHEMWHEGLLEASRLYFGERNVKGMFEVLEPLHAMMERGPQTLKETSFNQAYGRDLMEAQEWCRKYMKSGNVKDLTQAWDLYYHVFRRISKTS
